Measurements from patent US20220177524A1.

Molecular target: CD20 on Raji cells (CD20+) or K562-CD20 cells (UniProt P11836)
Assay: cell-based or functional assay

Substance | cytotoxicity on target cells (luciferase assay), MACS-sorted TCRαβ negative CD20 cTCR-T cells | cytotoxicity on target cells (luciferase assay), MACS-sorted TCRαβ negative CD20 TAC-T cells
anti-CD20 chimeric TCR (anti-CD20 scFv (Leu-16)-(GGGGS)3-CD3epsilon) | 49.2% | –
anti-CD20 TAC (anti-CD20 scFv (Leu-16)-(GGGGS)3-huUCHT1.Y177T-GGGGS-CD4) | – | 54.6%
